In paper PMC7977458, “The CK1δ/ε-AES axis regulates tumorigenesis and metastasis in colorectal cancer” (Theranostics, 2021):

Tests used:
SKP2 = SKP2 (UniProt Q13309); assay: anti-Flag co-IP, immunoblot; conditions: reference: wild type; sites S121
[1] = molecular target: T1, Flag-SKP2 (Flag-tagged S phase kinase-associated protein 2) (UniProt Q13309 1-424); assay: pull-down; in vitro GST pulldown; GST-AES fragments and CK1ε-His purified from E. coli, Flag-SKP2 purified from HEK293T cells; with 1 mM ATP; Flag-SKP2 detected with anti-SKP2 antibody; conditions: both partners purified
T1 construct: S phase kinase-associated protein 2 (SKP2); source: HEK293T, transfected, in lysate; also purified from HEK293T cells transfected with the Flag-SKP2 plasmid
T1 sequence (Q13309 whole entry, the tested form may be a part): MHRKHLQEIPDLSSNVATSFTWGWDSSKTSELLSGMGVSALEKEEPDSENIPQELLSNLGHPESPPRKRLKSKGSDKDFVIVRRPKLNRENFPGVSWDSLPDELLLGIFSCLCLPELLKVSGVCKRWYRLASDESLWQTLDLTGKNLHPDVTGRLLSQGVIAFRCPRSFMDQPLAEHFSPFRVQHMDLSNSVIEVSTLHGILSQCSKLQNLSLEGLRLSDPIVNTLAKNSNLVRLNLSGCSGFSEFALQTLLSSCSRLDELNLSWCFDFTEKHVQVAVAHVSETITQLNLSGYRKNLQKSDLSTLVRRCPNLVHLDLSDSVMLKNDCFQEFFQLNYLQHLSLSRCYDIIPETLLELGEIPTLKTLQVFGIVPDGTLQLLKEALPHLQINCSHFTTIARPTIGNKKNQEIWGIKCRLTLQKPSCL

| binding against the reference (SKP2) | Molecule | binding result [1] |
| --- | --- | --- |
| lost | AES (amino-terminal enhancer of split) (from UniProt Q08117) S121A | – |
| – | GST-AES, full length, phosphorylated by CK1ε-His (natural protein, human, UniProt Q08117 1-197, looked up, phosphorylated in vitro by CK1ε-His with 1 mM ATP; the paper maps the CK1δ/ε site to Ser121, Amino-terminal enhancer of split (AES), human, full length; Same chain as m14, after the kinase reaction in the pull-down; also called full-length AES (with CK1ε-His and ATP); source: E. coli, purified; incubated with CK1ε-His and 1 mM ATP; not shown: GST, N-terminal, kept) MMFPQSRHSGSSHLPQQLKFTTSDSCDRIKDEFQLLQAQYHSLKLECDKLASEKSEMQRHYVMYYEMSYGLNIEMHKQAEIVKRLNGICAQVLPYLSQEHQQQVLGAIERAKQVTAPELNSIIRQQLQAHQLSQLQALALPLTPLPVGLQPPSLPAVSAGTGLLSLSALGSQAHLSKEDKNGHDGDTHQEDDGEKSD | binds |
